Data reported in IntAct's records for PubMed 29039417.

B1: BBSome complex member BBS2 (Homo sapiens), Q9BXC9 (parent)
chain: MLLPVFTLKLRHKISPRMVAIGRYDGTHPCLAAATQTGKVFIHNPHTRNQHVSASRVFQSPLESDVSLLSINQAVSCLTAGVLNPELGYDALLVGTQTNLLAYDVYNNSDLFYREVADGANAIVLGTLGDISSPLAIIGGNCALQGFNHEGSDLFWTVTGDNVNSLALCDFDGDGKKELLVGSEDFDIRVFKEDEIVAEMTETEIVTSLCPMYGSRFGYALSNGTVGVYDKTSRYWRIKSKNHAMSIHAFDLNSDGVNELITGWSNGKVDARSDRTGEVIFKDNFSSAIAGVVEGDYRMDGHIQLICCSVDGEIRGYLPGTAEMRGNLMDTSAEQDLIRELSQKKQNLLLELRNYEENAKAELASPLNEADGHRGIIPANTRLHTTLSVSLGNETQTAHTELRISTSNDTIIRAVLIFAEGIFTGESHVVHPSIHNLSSSICIPIVPPKDVPVDLHLKAFVGYRSSTQFHVFESTRQLPRFSMYALTSLDPASEPISYVNFTIAERAQRVVVWLGQNFLLPEDTHIQNAPFQVCFTSLRNGGHLHIKIKLSGEITINTDDIDLAGDIIQSMASFFAIEDLQVEADFPVYFEELRKVLVKVDEYHSVHQKLSADMADHSNLIRSLLVGAEDARLMRDMKTMKSRYMELYDLNRDLLNGYKIRCNNHTELLGNLKAVNQAIQRAGRLRVGKPKNQVITACRDAIRSNNINTLFKIMRVGTASS
partner: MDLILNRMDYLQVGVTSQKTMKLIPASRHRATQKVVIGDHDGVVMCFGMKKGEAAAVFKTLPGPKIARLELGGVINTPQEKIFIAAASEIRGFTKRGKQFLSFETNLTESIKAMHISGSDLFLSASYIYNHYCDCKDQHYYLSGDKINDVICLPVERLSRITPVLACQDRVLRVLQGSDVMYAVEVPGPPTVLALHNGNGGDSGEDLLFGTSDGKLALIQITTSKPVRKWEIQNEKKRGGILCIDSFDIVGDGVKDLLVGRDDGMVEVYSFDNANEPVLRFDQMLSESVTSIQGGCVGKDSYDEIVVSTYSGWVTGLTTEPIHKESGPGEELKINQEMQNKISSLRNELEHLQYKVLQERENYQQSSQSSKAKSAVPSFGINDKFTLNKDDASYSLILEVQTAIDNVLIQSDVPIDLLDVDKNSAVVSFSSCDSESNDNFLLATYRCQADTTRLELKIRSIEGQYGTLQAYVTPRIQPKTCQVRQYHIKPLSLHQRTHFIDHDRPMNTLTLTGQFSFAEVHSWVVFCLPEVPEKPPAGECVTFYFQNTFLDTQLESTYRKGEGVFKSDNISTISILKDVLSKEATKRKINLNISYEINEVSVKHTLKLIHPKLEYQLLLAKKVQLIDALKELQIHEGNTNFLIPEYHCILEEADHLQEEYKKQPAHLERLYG

Variants of: B1
Details: with BBS7, Q8IWZ6-2

Effect of a mutation on the interaction, with no effect:
Q693A
Q693E
Q693K
V694A
V694E
V694K
I695A
I695E
I695K
T696A
T696E
T696K
A697E
A697K
C698A
C698E
C698K
R699A
R699E
R699K
D700A
D700E
D700K
A701E
A701K
I702A
I702E
I702K
R703A
R703E
R703K
S704A
S704E
S704K
N705A
N705E
N705K
N706A
N706E
N706K
I707A
I707E
I707K
N708A
N708E
N708K
T709A
